Assay results: PMC11187062, “Structure of human DPPA3 bound to the UHRF1 PHD finger reveals its functional and structural differences from mouse DPPA3” (Communications Biology, 2024)
Where “and” joins values, the source holds several entries; their conditions need not be identical. Equal entries are not always repeated.

Tests used:
Conditions in all cases: both partners purified
[1] = target: T1, human UHRF1 PHD finger (residues 299-366) (human, UniProt Q96T88 299-366); assay: ITC; Microcal PEAQ-ITC, 293 K, 10 mM HEPES pH 7.5, 150 mM NaCl, 0.25 mM TCEP; one-site model; n = 3
T1 construct: UHRF1 (ubiquitin-like PHD and RING finger domain-containing protein 1), human, PHD finger, residues 299-366; also called hPHD; hUHRF1 PHD finger; source: E. coli, expressed as a GST-fusion protein, purified (glutathione Sepharose 4B, HiTrap Q, Superdex 75)
T1 sequence (looked up): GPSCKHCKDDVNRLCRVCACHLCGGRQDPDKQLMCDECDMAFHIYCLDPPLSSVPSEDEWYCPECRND

[2] = target: T2, human UHRF1 PHD finger, residues 299-366, M332A (human, UniProt Q96T88 299-366, M332A); assay: ITC; Microcal PEAQ-ITC, 293 K, 10 mM HEPES pH 7.5, 150 mM NaCl, 0.25 mM TCEP, one-site model; which partner was titrated is not stated; single titrations and their means
T2 construct: UHRF1, human, PHD finger, residues 299-366, with M332A; also called hPHD M332A; source: E. coli, expressed as a GST-fusion protein, purified
T2 sequence (looked up): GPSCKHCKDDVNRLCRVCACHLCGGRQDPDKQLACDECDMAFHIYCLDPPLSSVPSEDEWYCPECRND

[3] = target: T3, human UHRF1 PHD finger, residues 299-366 (human, UniProt Q96T88 299-366); assay: as above
T3 construct: UHRF1 (ubiquitin-like PHD and RING finger domain-containing protein 1), human, PHD finger, residues 299-366; also called hPHD; hUHRF1 PHD finger; source: E. coli, expressed as a GST-fusion protein, purified (glutathione Sepharose 4B, HiTrap Q, Superdex 75)
T3 sequence (looked up): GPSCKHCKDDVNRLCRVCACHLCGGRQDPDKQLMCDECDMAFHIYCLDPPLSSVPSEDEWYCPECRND

[4] = target: T4, human UHRF1 PHD finger, residues 299–366 (human, UniProt Q96T88 299-366); assay: ITC; Microcal PEAQ-ITC, 293 K, 10 mM HEPES pH 7.5, 150 mM NaCl, 0.25 mM TCEP; one-site model; at least three independent titrations
T4 construct: UHRF1 (ubiquitin-like PHD and RING finger domain-containing protein 1), human, PHD finger, residues 299-366; 15N- or 13C,15N-labelled for NMR; also called hPHD; hUHRF1 PHD finger; source: E. coli, expressed as a GST-fusion protein, purified (glutathione Sepharose 4B, HiTrap Q, Superdex 75)
T4 sequence (looked up): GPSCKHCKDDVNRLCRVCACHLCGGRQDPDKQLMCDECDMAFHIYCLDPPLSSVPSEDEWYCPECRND

hPHD M332A = target: T5, hPHD M332A (human, UniProt Q96T88 299-366, M332A); assay: as above
T5 construct: UHRF1, human, PHD finger, residues 299-366; also called M332A hPHD mutation; source: E. coli, site-directed mutant of hPHD; purification of the hPHD mutants not described separately
T5 sequence (looked up): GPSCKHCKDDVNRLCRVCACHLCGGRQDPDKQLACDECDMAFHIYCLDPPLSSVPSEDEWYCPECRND

[5] = target: T4, human UHRF1 PHD finger, residues 299–366; assay: SEC-SAXS; 12 mg/ml hPHD:hDPPA3_(81-118) complex on Superdex 200 Increase 5/150 GL, 20 mM Tris-HCl pH 7.5, 150 mM NaCl, 2 mM DTT, 10 µM zinc acetate, 5% glycerol, 20 °C
[6] = target: T3, human UHRF1 PHD finger, residues 299-366; assay: ITC; Microcal PEAQ-ITC, 293 K, 10 mM HEPES pH 7.5, 150 mM NaCl, 0.25 mM TCEP, one-site model; which partner was titrated is not stated; single titrations and their means; remark: listed apart in the source
[7] = target: T1, human UHRF1 PHD finger (residues …); assay: ITC; Microcal PEAQ-ITC, 293 K, 10 mM HEPES pH 7.5, 150 mM NaCl, 0.25 mM TCEP; one-site model; n = 3; remark: listed apart in the source

B1: K95P substituted hDPPA3_(81-118) (peptide, UniProt Q6W0C5 81-118, looked up)
chain: SRRGVRTLLSVQREPMARLRYMLLGGVRTHERRPTNKE
notes: also called K95P mutant of hDPPA3; source: bought: Toray Research Center (Tokyo, Japan)
Kd [1]: 1260 nM

B2: human DPPA3, residues 81-118 (domain or fragment)
chain: SRRGVRTLLSVQREKMARLRYMLLGGVRTHERRPTNKE
notes: also called hDPPA3 WT; source: E. coli BL21 (DE3), His-Ub fusion, purified (Ni Sepharose, YUH1 cleavage, HiTrap SP, Superdex 75)
Kd [2]: 9490 nM and 6150 nM and 8570 nM
Kd [3]: 918 nM and 804 nM and 921 nM and 831 nM

B3: human DPPA3, residues 81–118 (recombinant) (domain or fragment)
chain: SRRGVRTLLSVQREKMARLRYMLLGGVRTHERRPTNKE
notes: Used for SAXS, NMR, CD, ITC and ubiquitination experiments; also called hDPPA3; source: E. coli BL21 (DE3), His-Ub fusion, purified (Ni Sepharose, YUH1 cleavage, HiTrap SP, Superdex 75)
Kd [4]: 868 nM
Kd (hPHD M332A): 8070 nM
stoichiometry N [5]: 1

B4: human DPPA3, residues 81-118, R98A/M102A (domain or fragment, UniProt Q6W0C5 81-118, looked up)
chain: SRRGVRTLLSVQREKMAALRYALLGGVRTHERRPTNKE
notes: also called hDPPA3_mutant1_R98AM102A; source: E. coli BL21 (DE3), His-Ub fusion, purified by the same protocol as the wild type
Kd [6]: 639 nM and 460 nM and 552 nM

B5: hDPPA3 residues 81-118, M96A/L99A (peptide, UniProt Q6W0C5 81-118, looked up)
chain: SRRGVRTLLSVQREKAARARYMLLGGVRTHERRPTNKE
notes: source: E. coli BL21 (DE3), purified (Ni Sepharose, His-Ub removed by YUH1, HiTrap SP, Superdex 75)
Kd [7]: 550 nM

B6: human DPPA3, residues 81-118, L88A/V91A (domain or fragment, UniProt Q6W0C5 81-118, looked up)
chain: SRRGVRTALSAQREKMARLRYMLLGGVRTHERRPTNKE
notes: DPPA3, human, with L88A and V91A; named only in the sheet; also called hDPPA3_mutant2_L88AV91A
Kd [6]: 2890 nM and 1670 nM and 1870 nM

B7: hDPPA3_(81-118) R86A (domain or fragment, human, UniProt Q6W0C5 81-118, looked up)
chain: SRRGVATLLSVQREKMARLRYMLLGGVRTHERRPTNKE
notes: source: E. coli BL21 (DE3), His-Ub fusion, purified by the same protocol as the wild type
Kd [4]: 20000 nM

B8: hDPPA3_(81-118) R86A/T87A (domain or fragment, human, UniProt Q6W0C5 81-118, looked up)
chain: SRRGVAALLSVQREKMARLRYMLLGGVRTHERRPTNKE
notes: as for B7
Kd [4]: > 85000 nM

B9: hDPPA3 residues 81-118, R98A/M102A (peptide, UniProt Q6W0C5 81-118, looked up)
chain: SRRGVRTLLSVQREKMAALRYALLGGVRTHERRPTNKE
notes: as for B5
Kd [7]: 352 nM

B10: hDPPA3_(81-118) T87A (domain or fragment, human, UniProt Q6W0C5 81-118, looked up)
chain: SRRGVRALLSVQREKMARLRYMLLGGVRTHERRPTNKE
notes: as for B7
Kd [4]: 16500 nM

B11: human DPPA3, residues 81-118, R93P/A97P (domain or fragment, UniProt Q6W0C5 81-118, looked up)
chain: SRRGVRTLLSVQPEKMPRLRYMLLGGVRTHERRPTNKE
notes: also called hDPPA3_mutant4_R93PA97P; source: E. coli BL21 (DE3), His-Ub fusion, purified by the same protocol as the wild type
Kd [6]: 11200 nM and 9620 nM and 7360 nM

B12: human DPPA3, residues 81-118, M96A/L99A (domain or fragment, UniProt Q6W0C5 81-118, looked up)
chain: SRRGVRTLLSVQREKAARARYMLLGGVRTHERRPTNKE
notes: also called hDPPA3_mutant3_M96AL99A; source: E. coli BL21 (DE3), His-Ub fusion, purified by the same protocol as the wild type
Kd [6]: 355 nM and 347 nM

B13: hDPPA3_(81-118) R93P/A97P (domain or fragment, human, UniProt Q6W0C5 81-118, looked up)
chain: SRRGVRTLLSVQPEKMPRLRYMLLGGVRTHERRPTNKE
notes: as for B7
Kd [4]: 9390 nM
